The values that follow come from patent publication US20040063907A1 (published 2004).

In one assay the target is soluble HLA-B*0702 (human). Put plainly: fluorescence polarization competition against the fluorescent labeled standard on soluble HLA-B*0702.
Another assay concerns the target HLA-A*0201 (human). As to the kind of experiment: fluorescence polarization competition, test peptide at 100 uM against the fluorescent-labeled peptide on HLA-A*0201, from Ymax.
Assay [1] addresses T1, purified recombinant C35 protein generated in E. coli (human, UniProt Q9BRT3 1-115, limits assumed).
T1 construct: also called hC35 protein; soluble C35 protein
T1 sequence: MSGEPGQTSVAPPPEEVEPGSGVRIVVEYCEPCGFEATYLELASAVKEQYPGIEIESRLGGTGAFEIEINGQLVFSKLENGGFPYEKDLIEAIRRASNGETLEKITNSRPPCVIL
Put plainly: ELISA, hybridoma supernatant on coated C35 protein, anti-mouse HRP. For orientation: An ELISA detects its analyte on a solid surface through an enzyme-linked reagent.

Assay [2] concerns the target T2, Beta galactosidase (negative control protein purified from E. coli) (UniProt P00722 1-1024 = β-galactosidase, limits assumed).
T2 construct: also called β-galactosidase; p-galactosidase
As to the kind of experiment: ELISA, hybridoma supernatant on coated protein, anti-mouse HRP.

For assay [3], the target named is T3, C35 protein, bacterially synthesized (recombinant human C35 purified from E. coli) (human, UniProt Q9BRT3 1-115, limits assumed).
T3 construct: also called hC35; recombinant C35 protein
T3 sequence: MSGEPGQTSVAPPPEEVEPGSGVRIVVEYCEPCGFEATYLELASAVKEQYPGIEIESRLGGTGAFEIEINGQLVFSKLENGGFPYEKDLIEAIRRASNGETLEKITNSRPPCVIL
As to the kind of experiment: ELISA screen of hybridoma supernatants on plates coated with C35 protein.

In assay [4] the target is T4, C35 polypeptide, as expressed by human tumor cells and breast tumor tissue (human, UniProt Q9BRT3 2-112).
T4 construct: 115 amino acid protein with a predicted prenylation motif CVIL at 112-115; It was detected on unfixed, non-permeabilized tumor cells and in paraffin sections; also called C35 protein; C35 antigen
T4 sequence: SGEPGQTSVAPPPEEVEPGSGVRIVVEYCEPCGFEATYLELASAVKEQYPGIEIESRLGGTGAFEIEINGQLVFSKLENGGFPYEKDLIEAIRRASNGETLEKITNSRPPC
Put plainly: immunohistochemistry on paraffin sections, affinity purified antibody.

The target in assay [5] is T5, C35 as expressed by cells or tissue (flow cytometry, immunohistochemistry) (human, UniProt Q9BRT3 2-112).
T5 construct: also called endogenous C35
T5 sequence: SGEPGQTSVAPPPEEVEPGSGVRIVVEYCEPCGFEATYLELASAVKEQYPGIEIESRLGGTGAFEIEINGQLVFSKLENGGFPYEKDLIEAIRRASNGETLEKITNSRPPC
As to the kind of experiment: immunohistochemistry of breast tumour sections.

T2 sequence (P00722 whole entry): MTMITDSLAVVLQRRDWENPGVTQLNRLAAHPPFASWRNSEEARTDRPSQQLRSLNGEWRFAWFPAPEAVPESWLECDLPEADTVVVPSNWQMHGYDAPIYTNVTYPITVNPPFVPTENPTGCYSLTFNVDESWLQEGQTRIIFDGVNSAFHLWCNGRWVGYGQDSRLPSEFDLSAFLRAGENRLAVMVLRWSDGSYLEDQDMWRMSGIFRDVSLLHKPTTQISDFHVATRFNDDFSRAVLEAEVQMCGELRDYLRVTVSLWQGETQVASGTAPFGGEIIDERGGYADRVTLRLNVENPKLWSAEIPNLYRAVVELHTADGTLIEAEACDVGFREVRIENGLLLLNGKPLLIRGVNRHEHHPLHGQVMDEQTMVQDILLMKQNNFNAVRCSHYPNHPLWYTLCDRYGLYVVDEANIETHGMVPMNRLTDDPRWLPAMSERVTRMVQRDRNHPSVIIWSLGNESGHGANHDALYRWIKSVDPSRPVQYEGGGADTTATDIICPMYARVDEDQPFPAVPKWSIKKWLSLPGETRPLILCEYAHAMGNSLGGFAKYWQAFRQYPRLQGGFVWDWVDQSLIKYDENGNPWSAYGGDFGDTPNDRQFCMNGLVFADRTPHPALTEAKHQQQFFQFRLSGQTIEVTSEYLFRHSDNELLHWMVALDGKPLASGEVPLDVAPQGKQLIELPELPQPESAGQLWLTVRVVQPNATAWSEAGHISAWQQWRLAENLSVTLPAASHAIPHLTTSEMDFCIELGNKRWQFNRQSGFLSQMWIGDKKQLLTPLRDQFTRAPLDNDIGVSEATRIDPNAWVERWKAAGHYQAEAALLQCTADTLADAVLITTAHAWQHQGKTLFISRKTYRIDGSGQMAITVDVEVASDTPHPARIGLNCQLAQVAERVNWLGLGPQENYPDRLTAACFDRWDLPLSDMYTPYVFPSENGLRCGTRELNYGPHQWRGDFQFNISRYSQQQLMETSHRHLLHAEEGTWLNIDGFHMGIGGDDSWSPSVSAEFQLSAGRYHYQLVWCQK

For the molecule NSRPPAVIL [C35 peptide N107 to L115 (analog with Ala substituted for Cys at 112)], the “% inhibition” value with soluble HLA-B*0702 was determined as 68.2%.

For ITNSRPPAV [C35 peptide I105 to V113 (analog with Ala substituted for Cys at 112)], the “% inhibition” value in the assay with soluble HLA-B*0702 is 45.2%.

As to KITNSRPPA [C35 peptide K104 to A112 (analog with Ala substituted for Cys at 112)], in the assay with soluble HLA-B*0702, the “% inhibition” value was determined as 69.4%.

In the case of GTGAFEIEI [C35 peptide G61 to I69], the “% inhibition” value in the assay with HLA-A*0201 was found to be 46.5%.

B1: 1E11 monoclonal antibody (antibody, mouse IgG1, V domains shown)
VH: DVQLQESGPGLVKPSQSLSLTCSVTGYSITSGYFWNWIRQFPGNKLEWMGYISYDGSNNSNPSLKNRISFTRDTSKNQFFLKFNSVTTDDSAAYYCTRGTTGFAYWGQGTLVTVSA
VL: QIVLTQSPAIMSASPGEKVTISCSASSSVSYMNWYQQKPGSSPKPWIYHTSNLASGVPARFSGSGSGTSYSLTISSMEAEDAATYYCQQYHSYPPTFGGGTKLEIK
notes: also called IE11
Consider B1, for which the binding result is given as “binds” in assay [1] and “no binding” in assay [2].

B2: monoclonal antibody of hybridoma clone 1E11 (antibody, mouse IgG1, V domains shown)
VH: DVQLQESGPGLVKPSQSLSLTCSVTGYSITSGYFWNWIRQFPGNKLEWMGYISYDGSNNSNPSLKNRISFTRDTSKNQFFLKFNSVTTDDSAAYYCTRGTTGFAYWGQGTLVTVSA
VL: QIVLTQSPAIMSASPGEKVTISCSASSSVSYMNWYQQKPGSSPKPWIYHTSNLASGVPARFSGSGSGTSYSLTISSMEAEDAATYYCQQYHSYPPTFGGGTKLEIK
notes: Mouse IgG1 kappa, immunization BCA34.hC35; See the note of 1F2 for a translation; also called IE11
In the case of B2, in assay [3], the binding result is on record as “binds”.

B3: 1F2 monoclonal antibody (antibody, V domains shown)
VH: DVQLQESGPGLVKPSQSLSLTCSVTGYSITSGYFWNWIRQFPGNKLEWMGYISYDGSNNSNPSLKNRISFTRDTSKNQFFLKFNSVTTDDSAAYYCTRGTTGFAYWGQGTLVTVSA
VL: QIVLTQSPAIMSASPGEKVTISCSASSSVSYMNWYQQKPGSSPKPWIYHTSNLASGVPARFSGSGSGTSYSLTISSMEAEDAATYYCQQYHSYPPTFGGGTKLEIK
notes: Mouse IgG1 kappa; In the VL, one printed codon 'get' was read as gct; also called IF2
Turning to B3, the results for the binding result in assay [4], in assay [1] and in assay [2] were “binds”, “binds” and “no binding”, respectively.

B4: monoclonal antibody of hybridoma clone 1F2 (antibody, V domains shown)
VH: DVQLQESGPGLVKPSQSLSLTCSVTGYSITSGYFWNWIRQFPGNKLEWMGYISYDGSNNSNPSLKNRISFTRDTSKNQFFLKFNSVTTDDSAAYYCTRGTTGFAYWGQGTLVTVSA
VL: QIVLTQSPAIMSASPGEKVTISCSASSSVSYMNWYQQKPGSSPKPWIYHTSNLASGVPARFSGSGSGTSYSLTISSMEAEDAATYYCQQYHSYPPTFGGGTKLEIK
notes: also called IF2
As for B4, the binding result in assay [3] and in assay [5] was “binds” each time.

On to GAFEIEING (also called GAFEIEING) [C35 peptide G63 to G71], for which, in the assay with soluble HLA-B*0702, the “% inhibition” value was 51.4%.

Take SGVRIVVEY [C35 peptide S21 to Y29]: the “% inhibition” value with HLA-A*0201 turned out to be 90.8%.

B5: 1B3 monoclonal antibody (antibody, mouse IgG1, V domains shown)
VH: EVQLQESGPSLVKPSQTLSLTCSVTGDSITSGYWNWIRKFPGNKLEYVGYISYSGGTYYNPSLKSRISITRDTSKNHYYLQLNSVTTEDTATYYCARGAYYGGAFFPYFDVWGAGTTVTVSS
VL: DVQITQSPSFLAASPGETITINCRASKYISKHLVWYQEKPGETKKLLIYSGSTLQSGLPSRFSGSGSGTDFTLTISSLEPEDFAMYYCQQHNEYPLTFGAGTKLELK
notes: Mouse IgG1, tested as hybridoma supernatant
In the case of B5, the binding result in assay [2] was “no binding”.

B6: 3E10 monoclonal antibody (antibody, V domains shown)
VH: EVQLQESGPSLVKPSQTLSLTCSVTGDSITSGYWNWIRKFPGNKLEYVGYISYSGGTYYNPSLKSRISITRDTSKNHYYLQLNSVTTEDTATYYCARGAYYGGAFFPYFDVWGAGTTVTVSS
VL: DVQITQSPSFLAASPGETITINCRASKYISKHLVWYQEKPGETKKLLIYSGSTLQSGLPSRFSGSGSGTDFTLTISSLEPEDFAMYYCQQHNEYPLTFGAGTKLELK
Turning to B6, in assay [2], the binding result is given as “no binding”.

In the case of TGAFEIEIN (also called TGAFEIEIN) [C35 peptide T62 to N70], the “% inhibition” value with soluble HLA-B*0702 amounted to 38.8%.

For the molecule ITNSRPPCV [C35 peptide I105 to V113], the “% inhibition” value in the assay with HLA-A*0201 stood at 86.4%.

Regarding EPGQTSVAP [C35 peptide E4 to P12], the “% inhibition” value with soluble HLA-B*0702 was determined as 54.6%.

On to SVAPPPEEV [C35 peptide S9 to V17], for which the “% inhibition” value in the assay with HLA-A*0201 was found to be 96.9%.

Turning to FEIEINGQL [C35 peptide F65 to L73], the “% inhibition” value with HLA-A*0201 was 74.8%.

Consider TYLELASAV [C35 peptide T38 to V46], for which the “% inhibition” value with HLA-A*0201 is 47.3%.

Usually % inhibition stands for the share of the control response that was lost under treatment.
